Reference: PMC4838378 (Nucleic Acids Research, 2016)
Where two headings read alike, the source gives them in different places.

Key:
[1] = molecular target: the molecule itself; assay: cross-linking
[2] = molecular target: T1, HpDnaB replicative helicase (Helicobacter pylori, UniProt O25916 1-488); assay: pull-down
T1 sequence: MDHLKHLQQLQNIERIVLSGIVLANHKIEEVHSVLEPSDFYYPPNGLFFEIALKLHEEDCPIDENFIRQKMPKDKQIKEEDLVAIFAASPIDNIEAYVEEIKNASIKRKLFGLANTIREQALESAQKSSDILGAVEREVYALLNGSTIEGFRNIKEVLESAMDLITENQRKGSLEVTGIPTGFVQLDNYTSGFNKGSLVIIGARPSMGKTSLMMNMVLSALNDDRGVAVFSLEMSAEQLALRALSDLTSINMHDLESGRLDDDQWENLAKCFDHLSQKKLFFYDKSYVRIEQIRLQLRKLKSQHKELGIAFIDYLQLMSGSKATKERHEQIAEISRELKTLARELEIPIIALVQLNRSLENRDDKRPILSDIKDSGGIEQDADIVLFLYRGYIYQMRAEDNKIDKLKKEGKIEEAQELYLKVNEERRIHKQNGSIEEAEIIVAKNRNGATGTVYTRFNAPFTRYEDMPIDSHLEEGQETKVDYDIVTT

[3] = molecular target: T2, Hp0897 (Helicobacter pylori 26695, UniProt O25557 1-208); assay: EMSA
T2 sequence: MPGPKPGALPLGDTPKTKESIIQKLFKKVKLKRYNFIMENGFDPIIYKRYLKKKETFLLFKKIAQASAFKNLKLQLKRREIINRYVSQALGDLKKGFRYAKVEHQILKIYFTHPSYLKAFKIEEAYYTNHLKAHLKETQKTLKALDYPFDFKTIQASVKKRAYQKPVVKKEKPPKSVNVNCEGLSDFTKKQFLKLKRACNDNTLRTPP

[4] = molecular target: T3, HpDnaB replicative helicase;Hp0897 (Helicobacter pylori;Helicobacter pylori …, UniProt O25916;O25557 1-488;1-208, |); assay: EMSA
T3 sequence 1: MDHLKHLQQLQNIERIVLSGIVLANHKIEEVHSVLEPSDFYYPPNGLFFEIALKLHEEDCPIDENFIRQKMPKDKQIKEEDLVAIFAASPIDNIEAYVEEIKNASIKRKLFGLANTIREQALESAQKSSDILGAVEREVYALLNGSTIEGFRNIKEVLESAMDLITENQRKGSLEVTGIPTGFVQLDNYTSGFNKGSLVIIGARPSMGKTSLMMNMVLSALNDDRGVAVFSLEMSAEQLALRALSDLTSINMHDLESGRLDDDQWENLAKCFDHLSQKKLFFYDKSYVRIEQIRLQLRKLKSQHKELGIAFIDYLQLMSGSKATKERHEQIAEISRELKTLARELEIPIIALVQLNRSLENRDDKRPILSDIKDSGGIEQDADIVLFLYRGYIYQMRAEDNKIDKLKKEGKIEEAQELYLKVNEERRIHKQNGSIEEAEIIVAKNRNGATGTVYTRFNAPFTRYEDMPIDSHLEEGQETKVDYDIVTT
T3 sequence 2: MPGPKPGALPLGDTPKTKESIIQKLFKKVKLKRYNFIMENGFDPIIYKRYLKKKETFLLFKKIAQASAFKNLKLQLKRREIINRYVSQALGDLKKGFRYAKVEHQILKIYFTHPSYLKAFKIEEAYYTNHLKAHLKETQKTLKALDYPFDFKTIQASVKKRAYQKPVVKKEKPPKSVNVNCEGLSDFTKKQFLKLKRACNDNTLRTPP

[5] = molecular target: T3, HpDnaB replicative helicase;Hp0897; assay: EMSA; remark: listed apart in the source

B1: His6-Hp0897 (natural protein, Helicobacter pylori strain 26695, UniProt O25557 1-208, looked up)
chain: MPGPKPGALPLGDTPKTKESIIQKLFKKVKLKRYNFIMENGFDPIIYKRYLKKKETFLLFKKIAQASAFKNLKLQLKRREIINRYVSQALGDLKKGFRYAKVEHQILKIYFTHPSYLKAFKIEEAYYTNHLKAHLKETQKTLKALDYPFDFKTIQASVKKRAYQKPVVKKEKPPKSVNVNCEGLSDFTKKQFLKLKRACNDNTLRTPP
- stoichiometry N [1]: 2

B2: biotinylated 70-nt ssDNA-1 (ssDNA)
DNA: CTGCCACACACCACCAAAGCTAACTGACAGCAGAATCCAGATGGATCATTTAAAGCATTTGCAACAATTG
modifications: 5' biotin
- binding result [2]: binds

B3: 70NZ ssDNA-1 (ssDNA)
DNA: CTGCCACACACCACCAAAGCTAACTGACAGCAGAATCCAGATGGATCATTTAAAGCATTTGCAACAATTG
- binding result [3]: binds
- binding result [4]: binds

B4: 70-nt forked DNA (ssDNA-1/ssDNA-2) (dsDNA)
DNA 1: CTGCCACACACCACCAAAGCTAACTGACAGCAGAATCCAGATGGATCATTTAAAGCATTTGCAACAATTG
DNA 2: CAATTGTTGCAAATGCTTTAAATGATCCATGACCTAAGACGACAGTCAATCGAACCACCACACACCGTC
- binding result [5]: binds
